These results are taken from US20200247886A1 (ZLIP, published 2020).

In assay [1] the target is T1, CD47 protein (construct not stated; SPR antigen, CD47 coated ELISA plates) (Homo sapiens (Human), UniProt Q08722 19-139, limits assumed).
T1 construct: also called the antigen
The assay can be described thus: ELISA on CD47, OD450 against Log[M]; column headed KD beside the legend.

For assay [2], the target named is T2, human CD47 expressed on cells (CD47 expressing CHO cells, Jurkat, HL60, DLD1, Raji) (human, UniProt Q08722 19-292).
T2 construct: also called CHO-CD47; IAP
Put plainly: flow cytometry blocking assay on Raji cells, SIRPα is the blocked ligand, MFI. For orientation: In flow cytometry, cells or beads pass a laser one at a time.

The target of assay [3] is T2, human CD47 expressed on cells (CD47 …). The assay can be described thus: IC50 as grade, SIRPα blocking on Raji cells; legend +++: <1 nM.
Assay [4] has the same target. Put plainly: flow cytometry on human red blood cells, donor 2, MFI.
The target is the same in assay [5]. Put plainly: flow cytometry on human red blood cells, donor 1, MFI.
Assay [6] has the same target. Put plainly: flow cytometry on human platelets, donor 2, MFI.
For assay [7] the target is unchanged. The assay can be described thus: flow cytometry on CD47 expressing CHO cells, MFI (FL-4).
The target of assay [8] is T3, CHO/mCD47-GFP (mouse, UniProt Q61735).
T3 construct: on the cell surface; also called mouse CD47 expressed on CHO cells; CHO cell expressing mouse CD47
T3 sequence (receptor, looked up): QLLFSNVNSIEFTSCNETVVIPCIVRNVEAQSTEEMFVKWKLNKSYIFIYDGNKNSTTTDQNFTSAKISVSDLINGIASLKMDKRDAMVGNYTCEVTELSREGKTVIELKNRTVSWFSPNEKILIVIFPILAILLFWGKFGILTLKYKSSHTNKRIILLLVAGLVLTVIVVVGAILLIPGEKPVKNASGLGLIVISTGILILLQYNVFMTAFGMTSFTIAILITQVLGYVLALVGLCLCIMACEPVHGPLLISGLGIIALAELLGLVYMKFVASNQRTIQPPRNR
The assay can be described thus: flow cytometry on CHO cells expressing mouse CD47-GFP, binding percentage.

In assay [9] the target is T2, human CD47 expressed on cells (CD47 …). Put plainly: flow cytometry SIRP-alpha blocking assay on Raji cells, MFI.
Assay [10] has the same target. The assay can be described thus: flow cytometry on human platelets, donor 1, MFI.
For assay [11] the target is unchanged. Put plainly: flow cytometry on human platelets, MFI.
For assay [12] the target is unchanged. The assay can be described thus: flow cytometry on human red blood cells, MFI.
For assay [13], the target named is T4, CD47 on monkey RBC (Macaca fascicularis, UniProt A0A2K5X523).
T4 construct: native, on red blood cells; also called cynomolgus monkey red blood cells expressing CD47
The assay can be described thus: flow cytometry on cynomolgus monkey red blood cells expressing CD47, MFI.

For assay [14], the target named is T2, human CD47 expressed on cells (CD47 …). The assay can be described thus: flow cytometry on DLD1 cells, IgG, frequency.
For assay [15] the target is unchanged. Put plainly: flow cytometry on DLD1 cells, IgG, MFI.

Numbering of substitutions follows the chain as printed.

B1: H-ABU2b (antibody, V domains shown)
VH: QVQLVQSGAEVKKPGASVKVSCKASGYTFTDFYINWVRQAPGQRLEWMGWIYLGSGNTKYNEKFKGRVTITVDTSASTAYMELSSLRSEDTAVYYCARREERGFAYWGQGTLVTVSS
VL: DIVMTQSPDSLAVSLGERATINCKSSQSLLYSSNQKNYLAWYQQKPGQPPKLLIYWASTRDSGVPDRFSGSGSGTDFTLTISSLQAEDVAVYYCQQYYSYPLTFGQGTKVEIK
As usually defined, the Kd is the constant that tells how readily two partners part at equilibrium. B1 had a dissociation constant Kd in [1] of 1.3 nM.

B2: H-ABU 6 (antibody, V domains shown)
VH: B1 VH with V72R
VL: DIVMTQSPDSLAVSLGERATINCKSSQSLLSSNQKNYLAWYQQKPGQPPKLLIYWASVRDSGVPDRFSGSGSGTDFTLTISSLQAEDVAVYYCQQFYSYPLTFGQGTKVEIK
By IC50 is commonly meant the concentration at which inhibition is half-maximal. For B2, the “IC50 (read off the curve)” value in [2] was around 0.4 nM. Moreover, in assay [3], the IC50 is below 1 nM.

B3: H-ABU 4 (antibody, V domains shown)
VH: B1 VH with F32I, T58V, V72R, E101D
VL: B2 VL with N36Y, V58T
For B3, in [2], the “IC50 (read off the curve)” value was around 0.3 nM. Further, the concentration for half-maximal inhibition (IC50) in [3] was below 1 nM.

B4: H-ABU 7 (antibody, V domains shown)
VH: B1 VH with F32H, V72R, E101D
VL: B2 VL with N33S, F96Y
By EC50 (read off the curve) is commonly meant the concentration giving half of the maximal effect. For B4, the “EC50 (read off the curve)” value in assay [4] was around 1 nM; in assay [5], around 1 nM; in assay [6], around 0.6 nM. Besides, the “IC50 (read off the curve)” value in assay [2] was around 0.09 nM. This molecule also showed an IC50 in [3] below 1 nM.

B5: C-ABU4 (antibody, human IgG4 S228P, kappa, V domains shown)
VH: QVQLQQSGPQLVRPGASVKISCKTSGYSFTNYWMQWVKQRPGQGLEWIGMIDPSDSESRLNQKFKDKATLTVDKSSSTAYMQLSSPTFEDSAVYYCARRGSPMITSFAYWGQGTLVTVSA
VL: DVQITQSPSFLAASPGETITINCRASKNIGKYLAWFQEKPGKTNKLLIYSGSTLQSGIPSRFSGSGSGTDFTLTISSLEPEDFAIYYCQQHNEYPYTFGGGTKLEIKR
notes: Human chimeric IgG4 antibody
In the case of B5, the “EC50 (read off the curve)” value in assay [7] is around 1 nM.

B6: ABU7 (antibody, V domains shown)
VH: EVQLQQSGPELVKPGASVKISCKASGYSFTGYYMNWVKQSPEKSLEWIGEINPSTGGTTYNQKFKAKATLTVDKSSSTAYMQLKSLTFEDSAVYYCAIYDGYEGFAYWGQGTLVTVSA
VL: DIKMTQSPSSMYASLGERVTITCKASQDIKSYLSWYQQKPWKSPKTLIYYATSLADGVPSRFSGSGSGQHYSLTISSLESDDTATYYCLQHGESPFTFGSGTKLEIK
notes: Murine hybridoma monoclonal antibody
Take B6: in assay [8], the binding result is recorded as “no binding (tested: about 0.4 ug/ml)”.

B7: H-ABU 39 (antibody, V domains shown)
VH: QVQLVQSGAEVKKPGASVKVSCKTSGYSFTNYWMQWVRQAPGQGLEWIGMIDPSDSESRLNQKFKDRATLTVDTSTSTAYMELSSLRSEDTAVYYCARRGSPMITSFAYWGQGTLVTVSS
VL: DVQITQSPSSLSASVGDRVTITCRASKNIGKYLAWFQQKPGKTNKLLIYSGSTLQSGIPSRFSGSGSGTDFTLTISSLQPEDFATYYCQQHNEYPYTFGGGTKVEIK
notes: Humanized antibody
As for B7, the “IC50 (read off the curve)” value in [9] was around 0.3 nM.

B8: H-ABU 41 (antibody, V domains shown)
VL: B7 VL
VH: B7 VH with V5Q, R67K, T74K
notes: Humanized antibody
Regarding B8, the “EC50 (read off the curve)” value is around 1 nM in [4], around 0.6 nM in [10], around 1 nM in assay [5] and around 0.6 nM in [6]. Also, in [9], the “IC50 (read off the curve)” value is around 0.3 nM.

B9: H-ABU 38 (antibody, V domains shown)
VH: B7 VH with T24A, S28T, A79V
VL: B7 VL
notes: Humanized antibody
Take B9: the “IC50 (read off the curve)” value in assay [9] was around 0.3 nM.

B10: H-ABU 43 (antibody, V domains shown)
VH: B7 VH with I48M, A68V, L70M, V72R
VL: B7 VL
notes: Humanized antibody
Regarding B10, the “EC50 (read off the curve)” value in [4] was around 1 nM; in assay [10], around 0.6 nM; in assay [5] it was around 1 nM; in assay [6], around 0.6 nM. Also, in assay [9], the “IC50 (read off the curve)” value is around 0.3 nM.

B11: H-ABU 37 (antibody, V domains shown)
VH: B7 VH with T24A, S28T, I48M, A68V, L70M, V72R, A79V
VL: B7 VL
notes: Humanized antibody
In the case of B11, the “IC50 (read off the curve)” value in assay [9] was around 0.3 nM.

B12: H-ABU10-IgG4-P (antibody)
light chain: B2 VL with L30V, N33S, F96Y
heavy chain: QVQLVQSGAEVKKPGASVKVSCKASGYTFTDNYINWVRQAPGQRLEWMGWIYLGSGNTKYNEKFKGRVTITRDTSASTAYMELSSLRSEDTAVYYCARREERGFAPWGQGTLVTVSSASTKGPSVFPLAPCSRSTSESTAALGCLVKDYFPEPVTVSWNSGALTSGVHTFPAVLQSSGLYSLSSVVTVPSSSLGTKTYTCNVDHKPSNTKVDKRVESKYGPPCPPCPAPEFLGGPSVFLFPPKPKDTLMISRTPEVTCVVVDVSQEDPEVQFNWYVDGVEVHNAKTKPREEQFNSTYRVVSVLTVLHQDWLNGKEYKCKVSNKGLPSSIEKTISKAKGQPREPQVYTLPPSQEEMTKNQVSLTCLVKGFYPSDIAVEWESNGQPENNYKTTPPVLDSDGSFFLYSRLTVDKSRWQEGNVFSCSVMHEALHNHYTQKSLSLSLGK
Turning to B12, the concentration giving a half-maximal response (EC50 (read off the curve)) in [11] was around 2 nM; in assay [12], around 4 nM.

B13: H-ABU10-IgG4-PE (antibody)
light chain: B2 VL with L30V, N33S, F96Y
heavy chain: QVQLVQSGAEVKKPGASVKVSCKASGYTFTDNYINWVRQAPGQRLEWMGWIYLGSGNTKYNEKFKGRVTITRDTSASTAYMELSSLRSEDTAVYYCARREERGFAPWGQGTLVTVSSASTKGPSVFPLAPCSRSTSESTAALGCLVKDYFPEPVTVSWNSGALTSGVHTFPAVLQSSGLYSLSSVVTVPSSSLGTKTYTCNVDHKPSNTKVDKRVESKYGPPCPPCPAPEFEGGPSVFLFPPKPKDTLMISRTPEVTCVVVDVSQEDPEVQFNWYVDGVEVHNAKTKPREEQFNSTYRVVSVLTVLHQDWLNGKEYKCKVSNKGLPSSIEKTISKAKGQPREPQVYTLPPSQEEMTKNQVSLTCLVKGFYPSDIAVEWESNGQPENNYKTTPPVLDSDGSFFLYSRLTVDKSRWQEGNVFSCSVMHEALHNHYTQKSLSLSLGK
As for B13, the figures for the “EC50 (read off the curve)” value in assay [11] and in assay [12] were around 2 nM and around 4 nM, respectively.

B14: Positive 3-IgG4-P (antibody)
heavy chain: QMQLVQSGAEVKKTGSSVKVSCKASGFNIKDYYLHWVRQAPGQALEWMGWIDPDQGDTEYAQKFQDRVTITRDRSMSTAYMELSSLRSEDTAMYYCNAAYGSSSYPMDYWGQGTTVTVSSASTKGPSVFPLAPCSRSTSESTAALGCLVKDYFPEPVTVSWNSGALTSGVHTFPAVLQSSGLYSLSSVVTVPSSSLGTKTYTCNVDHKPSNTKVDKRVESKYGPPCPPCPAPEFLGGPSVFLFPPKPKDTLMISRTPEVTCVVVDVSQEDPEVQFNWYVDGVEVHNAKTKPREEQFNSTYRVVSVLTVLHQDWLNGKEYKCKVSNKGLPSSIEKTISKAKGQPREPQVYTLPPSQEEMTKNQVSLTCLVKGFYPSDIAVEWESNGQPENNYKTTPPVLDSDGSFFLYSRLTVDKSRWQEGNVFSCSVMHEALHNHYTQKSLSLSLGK
light chain: QMTQSPSAMSASVGDRVTITCKASQDIHRYLSWFQQKPGKVPKHLIYRANRLVSGVPSRFSGSGSGTEFTLTISSLQPEDFATYYCLQYDEFPYTFGGGTKVEIKRTVAAPSVFIFPPSDEQLKSGTASVVCLLNNFYPREAKVQWKVDNALQSGNSQESVTEQDSKDSTYSLSSTLTLSKADYEKHKVYACEVTHQGLSSPVTKSFNRGEC
B14: the half-maximal effective concentration (EC50 (read off the curve)) in assay [13] was around 0.2 µg/mL; in assay [11], around 2 nM; in [12], around 4 nM.

B15: Positive 3-IgG4-PE (antibody)
heavy chain: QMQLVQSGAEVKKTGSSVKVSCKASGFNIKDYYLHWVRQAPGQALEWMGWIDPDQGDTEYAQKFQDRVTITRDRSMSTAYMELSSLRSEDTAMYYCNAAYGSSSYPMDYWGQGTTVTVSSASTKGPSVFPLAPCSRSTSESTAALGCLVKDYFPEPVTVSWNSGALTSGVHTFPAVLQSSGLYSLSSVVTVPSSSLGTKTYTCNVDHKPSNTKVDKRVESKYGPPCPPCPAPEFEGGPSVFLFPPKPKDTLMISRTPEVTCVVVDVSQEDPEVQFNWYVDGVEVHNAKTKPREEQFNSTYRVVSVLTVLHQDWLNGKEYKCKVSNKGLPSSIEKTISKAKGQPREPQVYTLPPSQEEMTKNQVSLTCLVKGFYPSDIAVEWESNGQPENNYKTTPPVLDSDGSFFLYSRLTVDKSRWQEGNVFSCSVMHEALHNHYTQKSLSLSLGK
light chain: B14 light chain
Consider B15, for which the entries for the “EC50 (read off the curve)” value in assay [13], in [11] and in [12] were around 0.1 µg/mL, around 2 nM and around 4 nM, respectively.

B16: H-ABU44 (antibody, V domains shown)
VH: QVQLVQSGAEVKKPGASVKVSCKASGYSFTNYHIHWVRQAPGQRLEWIGWIYPGSGNTKYNEKFKGRATLTADTSASTAYMELSSLRSEDTAVYYCARYDYDLYLHSWGQGTLVTVSS
VL: DIQITQSPSSVSASVGDRVTITCHASQNINVWLSWYQQKPGKAPKLLIYKASNLHTGVPSRFSGSGSGTGFTLTISSLQPEDFATYYCQQGQSYPLTFGQGTKLEIK
Regarding B16, the 50% effective concentration (EC50 (read off the curve)) was around 0.2 nM in [4], around 0.1 nM in [10], around 0.2 nM in [5] and around 0.1 nM in assay [6].

B17: ABU16 (IgG) (antibody, V domains shown)
VH: RVQLQQSGAELVRPGTSVKVSCKASAYAFTNYLIEWVKKRPGQGLEWIGVINPGSGGTNYNEKFKGKATLTADKSSSTAYMQLSSLTSEDSAVYFCARGDGYGSLFAYWGQGTLVTVSA
VL: RHCFNQSPAIMSASPGEKVTMTCSASSSVSYMHWYQQKSGTSPKRWIYDTSNLASGVPVRFSGSGSGTSYSLTISRMEAEDAATYYCQQWSNYPFTFGSGTKLELK
As for B17, the concentration giving a half-maximal response (EC50 (read off the curve)) in assay [14] is around 0.4 nM; in assay [15], around 4 nM.
